In paper PMC10483858 (Molecular Cancer, 2023) one finds IC50 data, which are given here for one molecule.

In general, IC50 refers to the point on the concentration scale where inhibition reaches its midpoint.

Where no end group is shown, it is not given here. [ ]: non-standard residue; d: D form. TrpNAc = Trp with an acetic acid moiety; Hyp = O=C(O)[C@@H]1C[C@@H](O)CN1; NMeNle = CCCC[C@H](NC)C(=O)O; NMeA = CN[C@@H](C)C(=O)O; Dab = NCC[C@H](N)C(=O)O; Scc = not defined here

The target in this experiment is T1, PD-L1 of the commercial HTRF PD-1/PD-L1 interaction assay.
T1 construct: PD-L1 as supplied in the Cisbio HTRF kit
The experiment can be described thus: AlphaScreen or HTRF; commercial HTRF PD-1/PD-L1 interaction assay (Cisbio, France); pAC65 varied; data fitted with Hill's model. The conditions noted are these: both partners purified.

B1: pAC65 macrocyclic peptide (peptide)
chain: Y[NMeA]NP[Ala‑NH2]L[Hyp]W[Dab][TrpNAc][NMeNle][NMeNle]L[Scc]G-NH2
modifications: bridge (positions not given here); not fully specified (bridges); reading uncertain; also: macrocyclic ring, places not given here
For B1, half-maximal inhibition (IC50) required 1.8 ± 0.16 nM.
